Experimental data from the DeepSol protein solubility set.

Experiment: soluble on expression in E. coli; label from the status in PepcDB or PDB records

Row | Sequence | soluble on expression in E. coli
1 | MLLAYIDEIGSTGAFIHPNHNRFSDSPAFGYGGFIIPEESAREFGSYFAERKKIFFRNEIPNNIDPGRWEKKGSDLLFALAINERPQNLRLLGSLISKLRKLDGHLFYYAEEKPIGTPKATNCGATEFRDREETAMRETLNRIARHADYEDSRVLVMMDQINEKSRIQRLPAMYAHILGRASEHQEMRRIVEPPMHIDSQLSTNIQFADWICSLAKRAIEYQLVEDSRYSWVSTAEALTPARGSFTYESKLRLYHRAIDDLNHSSILRPTRPLFNSKINQTLDEENRRKLEKVRAATIKEANN | not soluble
2 | MLLDEKALVTLQKLGLTYYGARVYITLVSLGSSDATELSIESEVPRTKIYNVLKRLEAEKWIAVEHTRPIIYTAKYPKDILKEKRVAFNSEINEVSNQLSEVYDKVIDNEVPKVWLLRGMNNITAKTINMIKRAKRDITLLGALYSENEIEQLKEELSYATKKGLHVRVISRQSIKLNNGELDIIKNLSSVIPQIKIGGPEFSKFVIIDDKELLILFSKVEDNILDIDSTIAIWIPNVSIASYQASIFNGIWNGYCQVDRC | not soluble
3 | MLLEISIYCRGGQGGVTAARILAATAMLQGYYSQSMPQFGPERRGAEVRAFLRISDERIRRKCPITYPDVVILFDLKLSFNGNPETVVVNCNGSSFTGHGNVFALDATEITRRYGLVNAGWPILGPAMAGTAAKALDLDPRCLLEAIRLELGDKADRSVKAAEEAYRVVECV | not soluble
4 | MLLSVPLLLGLLGLAAADPAIYFKEQFLDGDAWTNRWVESKHKSDFGKFVLSSGKFYGDLEKDKGLQTSQDARFYALSAKFEPFSNKGQTLVVQFTVKHEQNIDCGGGYVKLFPSGLDQKDMHGDSEYNIMFGPDICGPGTKKVHVIFNYKGKNVLINKDIRCKDDEFTHLYTLIVRPDNTYEVKIDNSQVESGSLEDDWDFLPPKKIKDPDAAKPEDWDERAKIDDPTDSKPEDWDKPEHIPDPDAKKPEDWDEEMDGEWEPPVIQNPEYKGEWKPRQIDNPDYKGTWIHPEIDNPEYSPDANIYAYDSFAVLGLDLWQVKSGTIFDNFLITNDEAYAEEFGNETWGVTKAAEKQMKDKQDEEQRLKEEEEDKKRKEEEEAEDKEDDDDRDEDEDEEDEKEEDEEESPGQAKDEL | soluble
5 | MLLYKDVISGDELVSDAYDLKEVDDIVYEADCQMVTVKQGGDVDIGANPSAEDAEENAEEGTETVNNLVYSFRLSPTSFDKKSYMSYIKGYMKAIKARLQESNPERVPVFEKNAIGFVKKILANFKDYDFYIGESMDPDAMVVLMNYREDGITPYMIFFKDGLVSEKF | soluble
6 | MLMLEREKLARLIKKRSLKVADEPVFKLSSGKLSRYYVDLKQITFDPEGDYLIGKAMYELVKEFNPDACGGLTLGADPIAYAIAFVSLMDSNPIKPFVVRKEPKGHGMKRQIEGLLNPGERVAVLEDVVTTGSSALKAVKACREYGLEVIGVFAVVDREEGGRENIEKEGIPLYSLFKLSELL | soluble
7 | MLMPRQTTPPLSLPLVGGGRFDLSAETSTRWTLICFYRGLHCPICATYLKELEKRVADFAERGVACVAVSSDSEERAQAMAEKVGGGTLRFAYDLPLAEARDWGLYISTSRGKTSIGIEEPALFSEPGLFLVTPERTLYYGAVQTMPFVRPHFSELVAALDFAIPNNYPARGEYTGAV | soluble
8 | MLNEQIFSNARVVTAEQVFIGTVVVRDGLIAEVQTGRSQLSQAQDLEGDFLLPGLVELHTDNLEKHLSPRPGVDWPSMSAVISHDAQIVAAGITTVFDALSIGDINPKGKRMQQLPAMLQAIADANEAGLTRADHLLHLRCEVSHPDTLNVFRDLVGQPLVQLVSVMEHAPGQRQFALESKYREYYMGKYHMSHEEMDHFIVEQVANSTEYADRYRRAIVELCLARGLSIASHDDATMAHVEESAGFGMNIAEFPTTLEAAQGCRQLGMSVLMGAPNIVRGGSHSGNVAAASLARHGLLDILSSDYYPASLLQAAFMLAEQDNDCELPHAINMVSRTPAIAAGLADRGEIRVGLRADLIQARNHAGLPVIDKVWRQGKRVF | not soluble
9 | MLNITEDEIDSISLLNNPLKDPSKRSIIIIDHSRNDRSPILIGLQGFFGTNRSFMNRYFNKVDFISVLEKIAEKAENDGFIIALPDTMTSLYGNQYINSPAVGNYEDFIVSDVLEYLFKRYGKRPVGLFGKSSGGFGAYTLAVRHPDKISGFVDVAGDSGFEYCYLPDFPAAIKYFRRYGVLEWYTYVKSKMNMSPEDMKVVNVLAMSAFYSPDQEAEMGIGLPFDTRTGLLKYDVWDKWRRLDPAFNISNNIDVLKDMAVFMQVGSRDDFHIDIGMEAMHNFLEKNGIVHFFETYDETHFDLDYLYLKSLPLLIELISD | not soluble
